Measurements: patent publication US6183967

Experiments:
Test in all cases: FP filter
[1] = test system: TZ05 DNA polymerase (Thermus species Z05); details: 55C
[2] = target: Taq DNA polymerase (Thermus aquaticus) (UniProt P19821)
[3] = target: Tth DNA polymerase (Thermus thermophilus) (UniProt P52028)
Tth DNA polymerase (Thermus thermophilus), sequence (P52028 whole entry): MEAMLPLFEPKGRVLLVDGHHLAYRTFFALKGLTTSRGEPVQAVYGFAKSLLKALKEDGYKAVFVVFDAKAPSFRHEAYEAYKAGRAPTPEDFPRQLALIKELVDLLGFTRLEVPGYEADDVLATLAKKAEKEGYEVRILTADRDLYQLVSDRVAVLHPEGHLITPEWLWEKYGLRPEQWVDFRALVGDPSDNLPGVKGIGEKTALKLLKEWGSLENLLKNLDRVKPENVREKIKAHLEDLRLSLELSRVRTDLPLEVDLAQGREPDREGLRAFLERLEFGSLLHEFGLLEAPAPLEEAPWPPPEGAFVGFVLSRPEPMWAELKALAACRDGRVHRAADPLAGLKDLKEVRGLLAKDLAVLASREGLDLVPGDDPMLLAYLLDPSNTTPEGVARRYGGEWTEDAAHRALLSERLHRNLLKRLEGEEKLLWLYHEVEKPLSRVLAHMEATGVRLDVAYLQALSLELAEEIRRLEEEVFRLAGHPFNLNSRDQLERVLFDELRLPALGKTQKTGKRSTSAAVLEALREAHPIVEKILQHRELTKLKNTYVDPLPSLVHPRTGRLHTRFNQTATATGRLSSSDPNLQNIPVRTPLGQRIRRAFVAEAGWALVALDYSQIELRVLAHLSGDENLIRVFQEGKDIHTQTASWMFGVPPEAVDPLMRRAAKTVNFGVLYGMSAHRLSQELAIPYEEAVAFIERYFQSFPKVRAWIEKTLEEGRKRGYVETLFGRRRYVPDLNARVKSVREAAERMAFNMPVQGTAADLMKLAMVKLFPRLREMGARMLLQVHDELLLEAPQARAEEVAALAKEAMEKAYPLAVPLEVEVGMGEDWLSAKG

Taq DNA polymerase (Thermus aquaticus), sequence (P19821 whole entry): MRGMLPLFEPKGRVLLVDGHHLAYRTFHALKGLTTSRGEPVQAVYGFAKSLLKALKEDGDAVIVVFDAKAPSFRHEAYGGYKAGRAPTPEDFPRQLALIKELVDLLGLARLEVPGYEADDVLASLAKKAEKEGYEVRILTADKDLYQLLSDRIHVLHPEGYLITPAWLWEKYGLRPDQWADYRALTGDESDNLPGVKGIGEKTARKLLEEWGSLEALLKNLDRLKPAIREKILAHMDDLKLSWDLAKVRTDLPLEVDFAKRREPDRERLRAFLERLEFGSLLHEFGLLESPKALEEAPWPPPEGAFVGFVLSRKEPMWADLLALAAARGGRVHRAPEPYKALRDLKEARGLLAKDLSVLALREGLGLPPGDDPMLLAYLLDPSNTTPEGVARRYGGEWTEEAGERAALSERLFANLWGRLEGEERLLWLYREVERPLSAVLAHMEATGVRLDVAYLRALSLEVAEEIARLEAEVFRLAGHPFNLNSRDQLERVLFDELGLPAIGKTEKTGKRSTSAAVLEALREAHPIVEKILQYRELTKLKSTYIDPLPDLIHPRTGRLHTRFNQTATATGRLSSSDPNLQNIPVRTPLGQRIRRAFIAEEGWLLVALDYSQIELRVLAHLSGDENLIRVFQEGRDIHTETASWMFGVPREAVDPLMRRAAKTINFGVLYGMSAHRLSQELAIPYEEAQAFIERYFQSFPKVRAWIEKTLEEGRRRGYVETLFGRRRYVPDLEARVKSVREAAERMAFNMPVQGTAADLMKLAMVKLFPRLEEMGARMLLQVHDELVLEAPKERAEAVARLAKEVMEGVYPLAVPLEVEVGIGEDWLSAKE

## TTCTCGGTTGGTCTCTGGCGGAGCACACCGGGGGGGCTGCGGGCAAGGCGGGTGTCTTGTGTATGATTCGCTTTTCCC [TZ1]
[1]; IT50 52.5C
  Kd: 0.016 nM

## TTCTCGGTTGGTCTCTGGCGGAGCNNNNNNNNNNNNNNNNNNNNNNNNNNNNNNTCTTGTGTATGATTCGCTTTTCCC [enriched Tth pool round 10]
[2]; cross binding, saturates at about 50%
  Kd: 0.3 nM
[3]; Tth binding buffer, room temp
  Kd: 5 nM

## TTCTCGGTTGGTCTCTGGCGGAGCGAAGCATACGAAGACATTCCAACGTTTTGTCTTGTGTATGATTCGCTTTTCCC [TZ54]
[1]; IT50 52C
  Kd: 0.023 nM

## TTCTCGGTTGGTCTCTGGCGGAGCATACACGACGTCATTCTAGCGTTTTGACGTCTTGTGTATGATTCGCTTTTCCC [ligand 22 (TQH22) / TZ3]
[1]; as TZ3, IT50 52C
  Kd: 0.009 nM

## TTCTCGGTTGGTCTCTGGCGGAGCGAACATACGAAGACATTCCAACGTTTTGTCTTGTGTATGATTCGCTTTTCCC [TZ69]
[1]; IT50 46C
  Kd: 0.02 nM

## TTCTCGGTTGGTCTCTGGCGGAGCGAAGCATACGAAGACATTCCAACGTTTTGTCTTGTGTATGATTCGCTTTTCCC [TZ8]
[1]; IT50 52C
  Kd: 0.005 nM

## TTCTCGGTTGGTCTCTGGCGGAGCNNNNNNNNNNNNNNNNNNNNNNNNNNNNNNTCTTGTGTATGATTCGCTTTTCCC [enriched Taq pool round 12]
[2]; Taq binding buffer, room temp
  Kd: 3.5 nM
[3]; cross binding, room temp
  Kd: 0.2 nM

## TTCTCGGTTGGTCTCTGGCGGAGCACGGGAGGGTGTGGAGTGGGTGGCGCGGGCTCTTGTGTATGATTCGCTTTTCCC [TZ36]
[1]; IT50 51C
  Kd: 0.02 nM

## TTCTCGGTTGGTCTCTGGCGGAGCACGTCGGGGGGGCGTTGGGACGGGCAGACGTCTTGTGTATGATTCGCTTTTCCC [TZ13]
[1]; IT50 58.5C
  Kd: 0.017 nM

## TTCTCGGTTGGTCTCTGGCGGAGCNNNNNNNNNNNNNNNNNNNNNNNNNNNNNNTCTTGTGTATGATTCGCTTTTCCC [random ssDNA pool]
[3]; 50 mM Bicine pH 8.3, 90 mM KCl, 3.5 mM Mn(OAc)2, room temp
  Kd: 70 nM

## TTCTCGGTTGGTCTCTGGCGGAGCGCGAGGGTGTGGCGTGGGTGGCGCGATCTTGTGTATGATTCGCTTTTCCC [TZ2]
[1]; printed as >>1000, IT50 <<35C
  Kd: > 1 nM

## TTCTCGGTTGGTCTCTGGCGGAGCGGATCAGACACGAGACATTGCGGACTTTTGTCTTGTGTATGATTCGCTTTTCCC [TZ9]
[1]; IT50 52C
  Kd: 0.005 nM

## TTCTCGGTTGGTCTCTGGCGGAGCACGTCGGGGGGGCCCTGGGGACGGGCAGGCGTCTTGTGTATGATTCGCTTTTCCC [TZ26]
[1]; printed as >>500, IT50 41C
  Kd: > 0.5 nM
